The results in this text go back to patent US20210070829A1 (ZHEJIANG DOER BIOLOGICS, published 2021).

Assay in all cases: cell-based or functional assay
Assay [1] concerns the target human GLP-1 receptor (human, UniProt P43220 24-463).
Assay [2] addresses Glucagon receptor.
Assay [3] deals with FGFR/β-Klotho receptor complex.

B1: C788 L1F5L5M5 (Fc fusion)
chain: HSQGTFTSDYSKQMDSQRAQDFVQWLMNTKRNRNNIAGGGGSERKCCVECPPCPAPPVAGPSVFLFPPKPKDTLMISRTPEVTCVVVDVSHEDPEVQFNWYVDGVEVHNAKTKPREEQFNSTFRVVSVLTVVHQDWLNGKEYKCKVSNKGLPSSIEKTISKTKGQPREPQVYTLPPSREEMTKNQVSLTCLVKGFYPSDIAVEWESNGQPENNYKTTPPMLDSDGSFFLYSKLTVDKSRWQQGNVFSCSVMHEALHNHYTQKSLSLSPGGGGGSGGGGSHPIPDSSPLLQFGGQVRQRYLYTDDAQQTEAHLEIREDGTVGGAEDQSPESLLQLKALKPGVIQILGVKTSRFLCQRPDGALYGSLHFDPEACSFRERLLEDGYNVYQSEAHGLPLHCPGNKSPHRDPAPRGPCRFLPLPGLPPALPEPPGILAPQPPDVGSSDPLSMVGGSQGRSPSYES
In the case of B1, the “GLP-1R agonist activity EC50 (luciferase reporter)” value (from here on “GLP-1R agonist activity EC50”) in assay [1] was determined as 10.6 nM. Further, the “GCGR agonist activity EC50 (luciferase reporter)” value (“GCGR agonist activity EC50” below) in assay [2] came out at 7.64 nM. For the same molecule, the “FGF21 activity EC50 (luciferase reporter)” value (“FGF21 activity EC50” for short) in assay [3] amounted to 0.88 nM.

B2: C711 L13F5L10M4 (Fc fusion)
chain: HSQGTFTSDYSKYLDSQAAQDFVQWLMNTKRNRNNIAGGGGSGGGGSGGGGSAERKCCVECPPCPAPPVAGPSVFLFPPKPKDTLMISRTPEVTCVVVDVSHEDPEVQFNWYVDGVEVHNAKTKPREEQFNSTFRVVSVLTVVHQDWLNGKEYKCKVSNKGLPSSIEKTISKTKGQPREPQVYTLPPSREEMTKNQVSLTCLVKGFYPSDIAVEWESNGQPENNYKTTPPMLDSDGSFFLYSKLTVDKSRWQQGNVFSCSVMHEALHNHYTQKSLSLSPGGGGGAGGGGAGGGGAHPIPDSSPLLQFGGQVRQRYLYTDDAQQTEAHLEIREDGTVGGAADQSPESLLQLKALKPGVIQILGVKTSRFLCQRPDGALYGSLHFDPEACSFRERLLEDGYNVYQSEAHGLPLHCPGNKSPHRDPAPRGPCRFLPLPGLPPALPEPPGILAPQPPDVGSSDPLAMVGGSQGRSPSYES
In the case of B2, the “GLP-1R agonist activity EC50” value in assay [1] stood at 10.8 nM. Also, the “GCGR agonist activity EC50” value in assay [2] stood at 9.55 nM. Besides, the “FGF21 activity EC50” value in assay [3] came to 0.75 nM.

B3: C227 L12F5L14M4 (Fc fusion)
chain: HSQGTFTSDYSKYLDSQAAQDFVQWLMNTGPSSGAPPSGGGGAGGGGAGGGGAAERKCCVECPPCPAPPVAGPSVFLFPPKPKDTLMISRTPEVTCVVVDVSHEDPEVQFNWYVDGVEVHNAKTKPREEQFNSTFRVVSVLTVVHQDWLNGKEYKCKVSNKGLPSSIEKTISKTKGQPREPQVYTLPPSREEMTKNQVSLTCLVKGFYPSDIAVEWESNGQPENNYKTTPPMLDSDGSFFLYSKLTVDKSRWQQGNVFSCSVMHEALHNHYTQKSLSLSPGGGGGAGGGGAGGGGASHPIPDSSPLLQFGGQVRQRYLYTDDAQQTEAHLEIREDGTVGGAADQSPESLLQLKALKPGVIQILGVKTSRFLCQRPDGALYGSLHFDPEACSFRERLLEDGYNVYQSEAHGLPLHCPGNKSPHRDPAPRGPCRFLPLPGLPPALPEPPGILAPQPPDVGSSDPLAMVGGSQGRSPSYES
For B3, the “GLP-1R agonist activity EC50” value in assay [1] was 1.55 nM. The “GCGR agonist activity EC50” value in assay [2] was determined as 1.38 nM. The “FGF21 activity EC50” value in assay [3] worked out at 0.71 nM.

B4: C240 L13F10L9M2 (Fc fusion)
chain: HSQGTFTSDYSKYLDERAAQDFVQWLMNGGPSSGAPPPSGGGGSGGGGSGGGGSAESKYGPPCPPCPAPEAAGGPSVFLFPPKPKDTLMISRTPEVTCVVVDVSQEDPEVQFNWYVDGVEVHNAKTKPREEQFASTYRVVSVLTVLHQDWLNGKEYKCKVSNKGLPSSIEKTISKAKGQPREPQVYTLPPSQEEMTKNQVSLTCLVKGFYPSDIAVEWESNGQPENNYKTTPPVLDSDGSFFLYSRLTVDKSRWQEGNVFSCSVMHEALHNHYTQKSLSLSLGGGGGSGGGGSGGGGSHPIPDSSPLLQFGGQVRQRYLYTDDAQQTEAHLEIREDGTVGGAADQSPESLLQLKALKPGVIQILGVKTSRFLCQRPDGALYGSLHFDPEACSFRERLLEDGYNVYQSEAHGLPLHCPGNKSPHRDPAPRGPCRFLPLPGLPPALPEPPGILAPQPPDVGSSDPLSMVGGSQGRSPSYES
Regarding B4, the “GLP-1R agonist activity EC50” value in assay [1] worked out at 1.21 nM. Also, in assay [2], the “GCGR agonist activity EC50” value was found to be 1.25 nM. Also, the “FGF21 activity EC50” value in assay [3] amounted to 0.89 nM.

B5: C462 L13F10L9M4 (Fc fusion)
chain: HSQGTFTSDYSKYLDEEAAQDFVQWLMNGGPSSGAPPPSGGGGSGGGGSGGGGSAESKYGPPCPPCPAPEAAGGPSVFLFPPKPKDTLMISRTPEVTCVVVDVSQEDPEVQFNWYVDGVEVHNAKTKPREEQFASTYRVVSVLTVLHQDWLNGKEYKCKVSNKGLPSSIEKTISKAKGQPREPQVYTLPPSQEEMTKNQVSLTCLVKGFYPSDIAVEWESNGQPENNYKTTPPVLDSDGSFFLYSRLTVDKSRWQEGNVFSCSVMHEALHNHYTQKSLSLSLGGGGGSGGGGSGGGGSHPIPDSSPLLQFGGQVRQRYLYTDDAQQTEAHLEIREDGTVGGAADQSPESLLQLKALKPGVIQILGVKTSRFLCQRPDGALYGSLHFDPEACSFRERLLEDGYNVYQSEAHGLPLHCPGNKSPHRDPAPRGPCRFLPLPGLPPALPEPPGILAPQPPDVGSSDPLAMVGGSQGRSPSYES
Regarding B5, in assay [1], the “GLP-1R agonist activity EC50” value is 1.11 nM. Besides, in assay [2], the “GCGR agonist activity EC50” value is 1.23 nM. Moreover, in assay [3], the “FGF21 activity EC50” value was 1.33 nM.

B6: C382 L13F10L9M1 (Fc fusion)
chain: HSQGTFTSDYSKYLDSQAAQDFVQWLMNGGPSSGAPPPSGGGGSGGGGSGGGGSAESKYGPPCPPCPAPEAAGGPSVFLFPPKPKDTLMISRTPEVTCVVVDVSQEDPEVQFNWYVDGVEVHNAKTKPREEQFASTYRVVSVLTVLHQDWLNGKEYKCKVSNKGLPSSIEKTISKAKGQPREPQVYTLPPSQEEMTKNQVSLTCLVKGFYPSDIAVEWESNGQPENNYKTTPPVLDSDGSFFLYSRLTVDKSRWQEGNVFSCSVMHEALHNHYTQKSLSLSLGGGGGSGGGGSGGGGSHPIPDSSPLLQFGGQVRQRYLYTDDAQQTEAHLEIREDGTVGGAADQSPESLLQLKALKPGVIQILGVKTSRFLCQRPDGALYGSLHFDPEACSFRERLLEDGYNVYQSEAHGLPLHLPGNKSPHRDPAPRGPARFLPLPGLPPALPEPPGILAPQPPDVGSSDPLSMVGGSQGRSPSYES
In the case of B6, the “GLP-1R agonist activity EC50” value in assay [1] amounted to 1.13 nM. In assay [2], the “GCGR agonist activity EC50” value stood at 1.27 nM. For the same molecule, the “FGF21 activity EC50” value in assay [3] was found to be 0.76 nM.

B7: C225 L10F10L14M2 (Fc fusion)
chain: HSQGTFTSDYSKYLDERAAQDFVQWLMNTGPSSGAPPPSGGGGAGGGGAGGGGAESKYGPPCPPCPAPEAAGGPSVFLFPPKPKDTLMISRTPEVTCVVVDVSQEDPEVQFNWYVDGVEVHNAKTKPREEQFASTYRVVSVLTVLHQDWLNGKEYKCKVSNKGLPSSIEKTISKAKGQPREPQVYTLPPSQEEMTKNQVSLTCLVKGFYPSDIAVEWESNGQPENNYKTTPPVLDSDGSFFLYSRLTVDKSRWQEGNVFSCSVMHEALHNHYTQKSLSLSLGGGGGAGGGGAGGGGASHPIPDSSPLLQFGGQVRQRYLYTDDAQQTEAHLEIREDGTVGGAADQSPESLLQLKALKPGVIQILGVKTSRFLCQRPDGALYGSLHFDPEACSFRERLLEDGYNVYQSEAHGLPLHCPGNKSPHRDPAPRGPCRFLPLPGLPPALPEPPGILAPQPPDVGSSDPLSMVGGSQGRSPSYES
With B7, the “GLP-1R agonist activity EC50” value in assay [1] was 1.42 nM. In addition, the “GCGR agonist activity EC50” value in assay [2] stood at 1.17 nM. In assay [3], the “FGF21 activity EC50” value is 0.85 nM.

B8: C495 L9F10L9M1 (Fc fusion)
chain: HSQGTFTSDYSKYLDEQAAQDFVQWLMNGGPSSGAPPPSGGGGSGGGGSGGGGSESKYGPPCPPCPAPEAAGGPSVFLFPPKPKDTLMISRTPEVTCVVVDVSQEDPEVQFNWYVDGVEVHNAKTKPREEQFASTYRVVSVLTVLHQDWLNGKEYKCKVSNKGLPSSIEKTISKAKGQPREPQVYTLPPSQEEMTKNQVSLTCLVKGFYPSDIAVEWESNGQPENNYKTTPPVLDSDGSFFLYSRLTVDKSRWQEGNVFSCSVMHEALHNHYTQKSLSLSLGGGGGSGGGGSGGGGSHPIPDSSPLLQFGGQVRQRYLYTDDAQQTEAHLEIREDGTVGGAADQSPESLLQLKALKPGVIQILGVKTSRFLCQRPDGALYGSLHFDPEACSFRERLLEDGYNVYQSEAHGLPLHLPGNKSPHRDPAPRGPARFLPLPGLPPALPEPPGILAPQPPDVGSSDPLSMVGGSQGRSPSYES
For B8, in assay [1], the “GLP-1R agonist activity EC50” value amounted to 1.21 nM. For the same molecule, the “GCGR agonist activity EC50” value in assay [2] stood at 1.43 nM. Moreover, in assay [3], the “FGF21 activity EC50” value came out at 0.84 nM.

B9: C462 L10F5L10M3 (Fc fusion)
chain: HSQGTFTSDYSKYLDEEAAQDFVQWLMNGGPSSGAPPPSGGGGAGGGGAGGGGAERKCCVECPPCPAPPVAGPSVFLFPPKPKDTLMISRTPEVTCVVVDVSHEDPEVQFNWYVDGVEVHNAKTKPREEQFNSTFRVVSVLTVVHQDWLNGKEYKCKVSNKGLPSSIEKTISKTKGQPREPQVYTLPPSREEMTKNQVSLTCLVKGFYPSDIAVEWESNGQPENNYKTTPPMLDSDGSFFLYSKLTVDKSRWQQGNVFSCSVMHEALHNHYTQKSLSLSPGGGGGAGGGGAGGGGADSSPLLQFGGQVRQRYLYTDDAQQTEAHLEIREDGTVGGAADQSPESLLQLKALKPGVIQILGVKTSRFLCQRPDGALYGSLHFDPEACSFRELLLEDGYNVYQSEAHGLPLHCPGNKSPHRDPAPRGPCRFLPLPGLPPALPEPPGILAPQPPDVGSSDPLAMVGPSQGRSPSYAS
As for B9, the “GLP-1R agonist activity EC50” value in assay [1] stood at 1.23 nM. For the same molecule, the “GCGR agonist activity EC50” value in assay [2] came to 1.22 nM. Also, the “FGF21 activity EC50” value in assay [3] came to 1.37 nM.

B10: C627 L12F10L9M6 (Fc fusion)
chain: HSQGTFTSDYSKQMDSQRAQDFVQWLMNGGPSSGAPPPSGGGGAGGGGAGGGGAAESKYGPPCPPCPAPEAAGGPSVFLFPPKPKDTLMISRTPEVTCVVVDVSQEDPEVQFNWYVDGVEVHNAKTKPREEQFASTYRVVSVLTVLHQDWLNGKEYKCKVSNKGLPSSIEKTISKAKGQPREPQVYTLPPSQEEMTKNQVSLTCLVKGFYPSDIAVEWESNGQPENNYKTTPPVLDSDGSFFLYSRLTVDKSRWQEGNVFSCSVMHEALHNHYTQKSLSLSLGGGGGSGGGGSGGGGSHPIPDSSPLLQFGGQVRQRYLYTDDAQQTEAHLEIREDGTVGGAADQSPESLLQLKALKPGVIQILGVKTSRFLCQRPDGALYGSLHFDPEACSFRERLLEDGYNVYQSEAHGLPLHCPGNKSPHRDPAPRGPCRFLPLPGLPPALPEPPGILAPQPPDVGSSDPLSMVEPSQGRSPSYAS
Consider B10, for which the “GLP-1R agonist activity EC50” value in assay [1] was found to be 1.48 nM. Moreover, the “GCGR agonist activity EC50” value in assay [2] turned out to be 1.69 nM. Moreover, the “FGF21 activity EC50” value in assay [3] stood at 1.11 nM.
